# Target: Glycated hemoglobin HbA1c (Homo sapiens, UniProt P69905;P68871 P69905:2-142,P68871:2-147)
# Test: detection range by PEG:AptGP silicon nanowire FET in 1x PBS; hemolytic blood also detected, serum control response <10%
# Details: also hemolytic whole blood samples; chain copies: 2
# Procedure: Prior to the surface modification, an SiNW-FET was washed with ethanol and cleaned with oxygen plasma (25 W, 50 sccm, 60 s). The SiNW-FET device was then incubated for 15 min in an ethanol solution (1% v/v) containing an optimal ratio of MPTMS, PTMS, and PEG-silane, of which the ethanol solution was also mixed with 16.7 mM DTT to reduce the possible disulfide linkages among the thiol groups of MPTMS. Next, this silane-based SAM-modified device was rinsed with ethanol, dried under N₂, and heated at 100° C. for 15 min. Finally, the silane-based SAM-modified device was incubated in 1×PBS containing 1 μM AptGP and 16.7 mM DTT for 1 hr, where AptGP (with the 5′-SH) was immobilized to MPTMS via a disulfide bond to form a PEG:AptGP/SiNW-FET aptasensor.
# We show a representative example of measuring HbA1c in the blood sample of Subject 1 by PEG:AptGP/SiNW-FET. Before detecting HbA1c in a lysed-blood sample, a PEG:AptGP/SiNW-FET aptasensor was calibrated by recording the transfer curves corresponding to various concentrations of HbA1c (CHbA1c=0-1.2 μM in 1×PBS), as shown in FIG. 14. […] By comparison, we also detected HbA1c in serum as a control test (with the transfer curves measured in the lower panel of FIG. 16 and the corresponding electrical responses presented in FIG. 17), where the serum was isolated from the tested blood sample by centrifugation.
# Chain of Glycated hemoglobin HbA1c (P69905 2-142, chain 1 of 2): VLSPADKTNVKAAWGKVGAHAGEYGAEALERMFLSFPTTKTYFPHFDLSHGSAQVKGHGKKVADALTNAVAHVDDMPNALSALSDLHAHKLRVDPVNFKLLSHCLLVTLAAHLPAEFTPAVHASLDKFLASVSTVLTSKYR
# Chain of Glycated hemoglobin HbA1c (P68871 2-147, chain 2 of 2): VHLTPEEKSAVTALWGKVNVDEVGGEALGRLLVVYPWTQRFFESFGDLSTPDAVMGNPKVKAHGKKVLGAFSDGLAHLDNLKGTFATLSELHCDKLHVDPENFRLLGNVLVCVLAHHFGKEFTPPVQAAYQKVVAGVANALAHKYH
binder,measurement,value
"GGTGAGTTAAGGAATCAGCGGCTCAGACGACCCGACGCAC (ssDNA, end-modified for disulfide conjugation to MPTMS on silicon nanowire) [AptGP (Aptamer A)]",binding result,binds

# Source: US20230028090, “Method Of Using Aptamer For Detecting Glycated Hemoglobin In Whole Blood And Nanoelectronic Aptasensor” (National Taiwan University, published 2023)
